Results on two molecules are retold here after US20200325237A1 (AVIDITY BIOSCIENCES, published 2020).

Assay [1] addresses T1, recombinant cyno transferrin receptor protein (Sino Biological 90253-C07H) (cyno, UniProt H9EXL1 89-760 (rhesus entry)).
T1 construct: Bought protein coated on ELISA plates; also called recombinant cyno TfR1; cynoTfR1
The assay is described as follows: ELISA on plate-coated recombinant cyno TfR1 (CD71); fit: specific binding with Hill slope. As to the method: (§1) Half-well high-binding 96-well plates (Costar #3690) were coated with recombinant human transferrin receptor protein (Sino Biological 11020-H07H) or recombinant cyno transferrin receptor protein (Sino Biological 90253-C07H) at 1 ng/μL in PBS (Gibco 14190) and incubated overnight at 4° C. Plates were washed four times with 100 μL of Tris buffered saline+Tween (20×TBST, Cell Signaling 9997S). 100 μL of Superblock (ThermoFisher PI-37535) was added to each well and incubated for 1 hour at room temperature. The wash step was repeated before the addition of the samples. Samples were added at concentrations up to 10 nM, 50 μL/well. Plates were incubated for another hour at room temp and wash step repeated. Secondary antibody (Peroxidase AffiniPure Goat Anti-Human IgG, Fcγ Fragment Specific, Jackson Immunoresearch, 109-035-098) was diluted 1:5000 in Superblock and 50 μL/well added. Plates were incubated for 1 hour at room temperature and washed one more time. Binding was measured by the addition of 50 μL of 1-Step™ Ultra TMB-ELISA (ThermoFisher, 34028), incubated for 5 minutes, and the reaction was stopped with the addition of 25 μL of Stop Solution 2N sulfuric Acid (R&D Systems DY994). Absorbance was measured at 450 nm, with reference wavelength 570 nm subtracted. Binding constants were determined using GraphPad Prism Specific Binding with Hill Slope.

Assay [2] deals with T2, hTfR (human transferrin receptor, source and construct not stated) (human, UniProt P02786 89-760, limits assumed). The assay is described as follows: SPR (BioRad ProteOn XPR36), mAb captured on Protein A, hTfR as analyte, 25 C. The procedure: The binding kinetics of nine exemplary humanized anti-TfR antibodies and the parent chimeric antibody were characterized. Studies were run on a BioRad ProteOn XPR36 optical biosensor using a GLM sensor chip coated with Protein A for mAb capture. Running buffer included 10 mM EPES, 150 mM NaCl, pH 7.4 with 0.05 tween-20 with 0.2 mg/ml BSA. Data were collected at 25 degrees C. All mAbs were diluted into running buffer to 2 ug/ml based on the stock concentration provided. Each was then captured for 40 seconds over a Protein A surface.
hTfR (100 ug) was dissolved into […] of water to yield a 4.3 uM stock concentration. hTfR was dilted to 43 nM as the highest concentration and tested in a 3 fold dilution series. hTfR was injected at 200 ul/min for 2 minutes followed by a one-hour dissociation phase.

For assay [3], the target named is T3, recombinant human transferrin receptor protein (Sino Biological 11020-H07H) (human, UniProt P02786 89-760).
T3 construct: Bought protein coated on ELISA plates; also called recombinant human TfR1; human TfR1
The assay is described as follows: ELISA on plate-coated recombinant human TfR1 (CD71); fit: specific binding with Hill slope. The procedure: as §1
On the technique in general: ELISA stands for enzyme-linked immunosorbent assay.

For assay [4], the target named is T2, hTfR (human transferrin receptor, …). The assay is described as follows: ELISA; ratio of the Kd on transferrin-captured hTfR to the Kd on directly coated hTfR. The procedure:
(§2) Antibodies were biotinylated using 50 fold molar excess of EZ-Link No weigh NHS-Biotin (Thermo Scientific A39256) following manufacturer's instructions. Half-well high-bind plates (Costar #3690) were coated with 500 ng/mL purified human holo-transferrin (R&D Systems 2914-HT) in PBS at 4° C. overnight. For comparison, plates were coated directly with hTfR. Plates were washed four times with 100 μL of Tris buffered saline+Tween (20×TBST, Cell Signaling 9997S). 100 μL of Superblock (ThermoFisher PI-37535) was added to each well and incubated for 1 hour at room temperature. The wash step was repeated before the addition of the hTfR (200 ng/mL in 25 μl) to the transferrin plates, or Superblock to the hTfR plates, and incubated for 30 minutes. Biotinylated antibodies were diluted to 20 nM for the high concentration and added to the plates with 3-fold serial dilution. 25 μl/well was added to the 25 μl already in the plate. Plates were incubated for 1 hour, and wash step was repeated. Streptavidin-HRP (R&D Systems DY998) was added following recommended dilution on the package insert, and a final wash step was done. Binding was measured by the addition of 50 μL of 1-Step™ Ultra TMB-ELISA (ThermoFisher, 34028), incubated for 5 minutes, and the reaction was stopped with the addition of 25 μL of Stop Solution 2N sulfuric Acid (R&D Systems DY994). Absorbance was measured at 450 nm, with reference wavelength 570 nm subtracted. Binding constants were determined using GraphPad Prism Specific Binding with Hill Slope. Change in antibody binding constants in the presence versus absense of transferrin is considered relative to the commercially available antibody which is known to have an overlapping epitope with transferrin (AF2474, R&D Systems).

The target is the same in assay [5]. Put plainly: ELISA, biotinylated antibody on hTfR captured by plate-coated HFE (HFE+TfR); fit: specific binding with Hill slope.
The target of assay [6] is T4, TfR2 (transferrin receptor 2) (UniProt Q9UP52 105-801, limits assumed).
T4 sequence (looked up): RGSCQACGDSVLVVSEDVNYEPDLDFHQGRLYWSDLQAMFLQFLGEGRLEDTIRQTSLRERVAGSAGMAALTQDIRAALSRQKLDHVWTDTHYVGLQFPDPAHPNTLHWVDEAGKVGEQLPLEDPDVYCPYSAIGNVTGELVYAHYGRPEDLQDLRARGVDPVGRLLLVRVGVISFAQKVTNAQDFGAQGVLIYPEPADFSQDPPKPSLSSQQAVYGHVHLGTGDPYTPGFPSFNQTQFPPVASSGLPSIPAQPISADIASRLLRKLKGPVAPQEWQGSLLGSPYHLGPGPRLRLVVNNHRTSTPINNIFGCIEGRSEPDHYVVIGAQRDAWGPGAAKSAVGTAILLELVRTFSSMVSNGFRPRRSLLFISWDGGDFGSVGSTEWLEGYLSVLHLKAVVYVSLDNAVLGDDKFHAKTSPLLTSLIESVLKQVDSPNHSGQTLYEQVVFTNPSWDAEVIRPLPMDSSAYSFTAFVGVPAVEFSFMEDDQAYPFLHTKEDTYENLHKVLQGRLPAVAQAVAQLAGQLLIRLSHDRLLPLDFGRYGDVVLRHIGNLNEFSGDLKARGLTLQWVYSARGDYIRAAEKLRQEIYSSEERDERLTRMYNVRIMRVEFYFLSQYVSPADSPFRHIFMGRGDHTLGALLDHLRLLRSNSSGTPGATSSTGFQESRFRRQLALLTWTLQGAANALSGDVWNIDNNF
Put plainly: A450 plate assay on TfR2 (method not described in the text).

The target of assay [7] is T2, hTfR (human transferrin receptor, …). Put plainly: ELISA; ratio of the Kd on HFE-captured hTfR to the Kd on directly coated hTfR.
For assay [8] the target is unchanged. The assay is described as follows: ELISA, biotinylated antibody on hTfR captured by plate-coated human holo-transferrin (Tf+TfR); fit: specific binding with Hill slope. The procedure:
as §2

T2 sequence (P02786 89-760 limits assumed): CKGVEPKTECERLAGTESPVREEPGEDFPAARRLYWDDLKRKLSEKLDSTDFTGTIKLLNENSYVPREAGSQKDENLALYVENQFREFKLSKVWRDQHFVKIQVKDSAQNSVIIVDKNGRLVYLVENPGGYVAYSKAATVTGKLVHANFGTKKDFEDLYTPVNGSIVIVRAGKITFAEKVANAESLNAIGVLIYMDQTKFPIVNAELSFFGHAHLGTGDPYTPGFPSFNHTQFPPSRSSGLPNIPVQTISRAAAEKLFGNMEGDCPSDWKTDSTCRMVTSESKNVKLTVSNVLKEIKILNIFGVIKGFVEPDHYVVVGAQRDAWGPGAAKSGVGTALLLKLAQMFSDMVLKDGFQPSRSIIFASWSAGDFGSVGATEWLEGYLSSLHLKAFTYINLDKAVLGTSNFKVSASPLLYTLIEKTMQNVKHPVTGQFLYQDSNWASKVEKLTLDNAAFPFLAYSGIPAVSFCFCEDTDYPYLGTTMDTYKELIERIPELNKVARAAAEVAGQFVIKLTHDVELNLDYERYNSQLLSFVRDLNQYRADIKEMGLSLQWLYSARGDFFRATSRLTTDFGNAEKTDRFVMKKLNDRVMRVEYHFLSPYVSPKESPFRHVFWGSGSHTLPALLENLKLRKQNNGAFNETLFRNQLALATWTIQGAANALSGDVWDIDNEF
T3 sequence (P02786 89-760 limits assumed): as above
T1 sequence (chain, as listed by the source C07H C07H): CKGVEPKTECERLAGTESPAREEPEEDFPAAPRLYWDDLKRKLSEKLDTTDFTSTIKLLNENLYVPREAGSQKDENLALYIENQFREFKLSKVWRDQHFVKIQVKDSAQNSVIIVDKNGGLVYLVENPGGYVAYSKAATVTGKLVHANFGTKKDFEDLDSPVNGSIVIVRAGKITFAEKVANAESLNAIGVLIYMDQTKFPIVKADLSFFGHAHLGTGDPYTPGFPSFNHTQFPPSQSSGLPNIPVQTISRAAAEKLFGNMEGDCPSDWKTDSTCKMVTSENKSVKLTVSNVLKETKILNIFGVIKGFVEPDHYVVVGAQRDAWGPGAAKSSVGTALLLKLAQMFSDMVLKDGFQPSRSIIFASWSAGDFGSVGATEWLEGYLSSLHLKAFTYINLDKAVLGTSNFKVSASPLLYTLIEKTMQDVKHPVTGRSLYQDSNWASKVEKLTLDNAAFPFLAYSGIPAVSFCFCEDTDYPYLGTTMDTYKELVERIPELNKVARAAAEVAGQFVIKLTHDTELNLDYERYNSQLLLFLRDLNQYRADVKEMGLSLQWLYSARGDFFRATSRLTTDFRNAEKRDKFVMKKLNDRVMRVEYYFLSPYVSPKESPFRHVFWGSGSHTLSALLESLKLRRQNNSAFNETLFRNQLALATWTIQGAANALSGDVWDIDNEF

B1: 13E4-Variant 2i (antibody, human IgG1, kappa, L234A L235A)
heavy: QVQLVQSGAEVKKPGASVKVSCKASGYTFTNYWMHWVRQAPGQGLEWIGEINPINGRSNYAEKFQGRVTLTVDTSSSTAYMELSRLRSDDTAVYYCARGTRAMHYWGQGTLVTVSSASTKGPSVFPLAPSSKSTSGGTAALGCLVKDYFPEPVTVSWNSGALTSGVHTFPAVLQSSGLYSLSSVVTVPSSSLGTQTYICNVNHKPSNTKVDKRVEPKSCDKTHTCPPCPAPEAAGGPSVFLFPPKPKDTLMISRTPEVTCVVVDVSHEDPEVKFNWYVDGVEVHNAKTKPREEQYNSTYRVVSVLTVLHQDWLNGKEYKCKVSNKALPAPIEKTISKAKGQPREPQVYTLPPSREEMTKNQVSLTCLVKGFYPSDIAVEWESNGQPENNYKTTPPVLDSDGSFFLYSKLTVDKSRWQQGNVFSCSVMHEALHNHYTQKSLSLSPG
light: DIQMTQSPSSLSASVGDRVTITCRTSENIYNNLAWYQQKPGKSPKLLIYAATNLADGVPSRFSGSGSGTDYTLTISSLQPEDFATYYCQHFWGTPLTFGGGTKVEIKRTVAAPSVFIFPPSDEQLKSGTASVVCLLNNFYPREAKVQWKVDNALQSGNSQESVTEQDSKDSTYSLSSTLTLSKADYEKHKVYACEVTHQGLSSPVTKSFNRGEC
notes: Humanized hIgG1 with Fc mutations; also called hIgG1 TfR-Var2i
For B1, the Bmax in assay [1] was determined as 93.1 % max binding; in assay [3], 94.2 % max binding; in assay [5], 3 A450; in assay [8], 3.48 A450. Further, the equilibrium dissociation constant (Kd) (as a rule, the constant that tells how readily two partners part at equilibrium) in assay [1] came to 0.012 nM; in assay [2] it was 0.00043 nM; in assay [3], 0.00817 nM; in assay [5], 0.273 nM; in assay [8], 0.0678 nM. Moreover, the h in assay [1] turned out to be 1.56; in assay [3] it was 1.35; in assay [5], 1.63; in assay [8] it was 1.49. The off-rate (koff) (as a rule, the rate constant with which the complex falls apart) in assay [2] is 3.9e-07 s⁻¹. Also, in assay [2], the kon (as a rule, a measure of how fast the partners come together) is 913000 M⁻¹ s⁻¹. Besides, in assay [4], the “Kd(Tf+TfR)/Kd(TfR)” value is 2.8. For the same molecule, in assay [6], the binding result is on record as “no binding (tested: 1000 nM)”. The “Kd(HFE+TfR)/Kd(TfR)” value in assay [7] was 11.1.

B2: 13E4-Variant 2ii (antibody, human IgG1, kappa, L234A L235A)
heavy: QVQLVQSGAEVKKPGASVKVSCKASGYTFTNYWMHWVRQAPGQGLEWIGEINPINGRSNYAEKFQGRVTLTVDTSSSTAYMELSRLRSDDTAVYYCARGTRAMHYWGQGTLVTVSSASTKGPSVFPLAPSSKSTSGGTAALGCLVKDYFPEPVTVSWNSGALTSGVHTFPAVLQSSGLYSLSSVVTVPSSSLGTQTYICNVNHKPSNTKVDKRVEPKSCDKTHTCPPCPAPEAAGGPSVFLFPPKPKDTLMISRTPEVTCVVVDVSHEDPEVKFNWYVDGVEVHNAKTKPREEQYNSTYRVVSVLTVLHQDWLNGKEYKCGVSNKALPAPIEKTISKAKGQPREPQVYTLPPSREEMTKNQVSLTCLVKGFYPSDIAVEWESNGQPENNYKTTPPVLDSDGSFFLYSKLTVDKSRWQQGNVFSCSVMHEALHNHYTQKSLSLSPG
light: DIQMTQSPSSLSASVGDRVTITCRTSENIYNNLAWYQQKPGKSPKLLIYAATNLADGVPSRFSGSGSGTDYTLTISSLQPEDFATYYCQHFWGTPLTFGGGTKVEIKRTVAAPSVFIFPPSDEQLKSGTASVVCLLNNFYPREAKVQWKVDNALQSGNSQESVTEQDSKDSTYSLSSTLTLSKADYEKHKVYACEVTHQGLSSPVTKSFNRGEC
notes: Humanized hIgG1 with Fc mutations; also called hIgG1 TfR-Var2ii
In the case of B2, in assay [1], the Bmax was found to be 94.2 % max binding, the Kd was determined as 0.0127 nM and the h stood at 1.58. In assay [2], this molecule yielded a dissociation constant (Kd) of 0.00049 nM, a koff of 4.3e-07 s⁻¹ and an on-rate constant (kon) of 880000 M⁻¹ s⁻¹. In addition, in assay [3], the Bmax is 92.9 % max binding, the Kd stood at 0.00964 nM and the h was 1.43. For the same molecule, in assay [4], the “Kd(Tf+TfR)/Kd(TfR)” value was 2.5. Besides, in assay [5], the Bmax was determined as 3.15 A450, the Kd is 0.227 nM and the h turned out to be 1.64. For the same molecule, in assay [6], the binding result is recorded as “no binding (tested: 1000 nM)”. Besides, the “Kd(HFE+TfR)/Kd(TfR)” value in assay [7] was 9.9. In assay [8], the Bmax amounted to 3.53 A450, the Kd amounted to 0.0578 nM and the h is 1.45.
